{"source": "paper PMC5428041", "about": "“Dynamic equilibrium on DNA defines transcriptional regulation of a multidrug binding transcriptional repressor, LmrR”", "binders": {"B1": {"name": "lmrCD operator 33 bp (dsDNA)", "DNA 1": "CAATTTAATGTAAAGTAGTTTACATTATTTAAC", "DNA 2": "GTTAAATAATGTAAACTACTTTACATTAAATTG"}}, "biological_target": "T1, LmrR (Lactococcus lactis, UniProt A2RI36 1-116)", "T1 sequence": "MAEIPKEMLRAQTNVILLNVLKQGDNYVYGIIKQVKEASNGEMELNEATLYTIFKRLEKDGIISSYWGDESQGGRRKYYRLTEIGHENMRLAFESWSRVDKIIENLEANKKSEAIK", "assay": "ITC; apo; 2 LmrR dimers per DNA; 10 mM NaPi pH 6.8, 100 mM NaCl, 25 C (ITC; same buffer for NMR); 5% DMSO in riboflavin titrations", "settings": "protein: recombinant; tags: C-terminal His6; chain copies: 4"}
{"binder": "B1", "values": [{"measurement": "Kd", "value": "64 ± 22", "unit": "nM"}]}
